Assay results reported in patent publication US20090280138A1 (OXFORD BIOMEDICA UK, published 2009).
Like-named read-outs stand apart in the source and are kept apart here.

What was measured:
[1] = target: T1, MHC class I allele B*0702 monomer (human, biotinylated, bound to streptavidin-coated plate); assay: iTopia, multiparametric iScore
T1 construct: also called B7; HLA-B7
Method: (§1) The 9 mers were tested for Peptide Binding, Off Rate and Affinity using iTopia Epitope Discovery System in accordance with the manufacturer's instructions. Briefly, 96 well microtitre plates coated with MHC molecules representing different MHC alleles are used to identify candidate peptides. […] Determinations are performed in duplicate using an ELISA plate reader and included allele specific positive controls.
(§2) Finally, multiparametric analysis is performed on the results from these assays and an iScore is generated. The iScore represents a measure of the overall quality of peptide-MHC binding, enabling candidate peptides to be ranked in order of binding quality and allowing rational prioritisation of peptides for functional cellular follow-up studies.

[2] = target: T1, MHC class I allele B*0702 monomer; assay: iTopia, multiparametric iScore; remark: listed apart in the source
Procedure, shortened: (§3)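 9-mer peptides were tested on plates coated with MHC molecules, measuring binding, off-rate and affinity by ELISA in duplicate with allele-specific positive controls.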

[3] = target: T2, MHC class I allele A*0201 monomer (human, biotinylated, bound to streptavidin-coated plate); assay: iTopia, multiparametric iScore
T2 construct: also called A2; HLA-A2
Procedure, shortened: as §3

[4] = target: T3, MHC class I allele A*0301 monomer (human, biotinylated, bound to streptavidin-coated plate); assay: iTopia, multiparametric iScore
T3 construct: also called A3; HLA-A3
Procedure, shortened: as §3

[5] = target: T4, MHC class I allele A*0101 monomer (human, biotinylated, bound to streptavidin-coated plate); assay: iTopia, multiparametric iScore
T4 construct: placeholder peptide and b2M removed, then reconstituted with test peptide and fresh b2M; also called A1; HLA-A1
Procedure, shortened: as §3

[6] = target: T5, MHC class I molecule B*0702 (biotin (bound via biotin to streptavidin-coated plates)); assay: iTopia affinity assay (ED50), peptide titration on plate-bound MHC
T5 construct: Methods name B*0702 as the allele used; also called B7; HLA-B7
Method: as §1
(§4) Dose-response curves of peptide binding to MHC were prepared by peptide titration to determine the ED50 measurement for each peptide. Values for the concentrations tested (in duplicate) were obtained as a percentage of the highest (9000×) concentration of the positive control peptide. A dose-response curve was generated using GraphPad Prism® curve fitting software, which automatically calculated the ED50 (in Molarity) for each peptide.

[7] = target: T6, MHC class I molecule HLA-A*0201 (iTopia plate-bound monomer) (biotin (bound to streptavidin-coated plate)); assay: iTopia off-rate assay, 37 C; fit R^2 0.93
T6 construct: also called A2
Method: as §1
A one-phase exponential decay curve, with a plateau given equal to 0, was generated using GraphPad Prism® software, which calculated the t1/2 and goodness-of-fit, as measured by r², for each peptide.

[8] = target: T7, MHC class I molecule A*0301 (biotin (bound via biotin to streptavidin-coated plates)); assay: iTopia affinity assay (ED50), peptide titration on plate-bound MHC
T7 construct: also called A3; HLA-A3
Method: as §1, §4

[9] = target: T8, MHC class I molecule A*0201 (biotin (bound via biotin to streptavidin-coated plates)); assay: as above
T8 construct: also called A2; HLA-A2
Method: as §1, §4

[10] = target: T9, MHC class I molecule A*0101 (biotin (bound via biotin to streptavidin-coated plates)); assay: as above
T9 construct: also called A1; HLA-A1
Method: as §1, §4

[11] = target: T2, MHC class I allele A*0201 monomer; assay: iTopia, multiparametric iScore; remark: listed apart in the source
Method: as §1, §2

[12] = target: T3, MHC class I allele A*0301 monomer; assay: iTopia, multiparametric iScore; remark: listed apart in the source
Method: as §1, §2

B1: 5T4 9-mer peptide 126 (peptide)
peptide: YVSFRNLTH
iScore [1]: 0.21 | iScore [2]: 0.21 | iScore [3]: 0 | iScore [4]: 0.086 | iScore [5]: 0

B2: 5T4 9 mer peptide 45 (LPAYVRNLF) (peptide)
peptide: LPAYVRNLF
EC50 [6]: 2 µM

B3: 5T4 9-mer peptide 55 (peptide)
peptide: GAFARRPPL
iScore [1]: 0.359

B4: 5T4 9-mer peptide 118 SLRHLDLSN (peptide)
peptide: SLRHLDLSN
t½ half life [7]: 0.4 h

B5: 5T4 9 mer peptide 125 (LTYVSFRNL) (peptide)
peptide: LTYVSFRNL
EC50 [8]: 3 µM | EC50 [9]: 0.4 µM | EC50 [6]: 3 µM | EC50 [10]: 3 µM

B6: 5T4 9-mer peptide 113 (peptide)
peptide: LPRDVLAQL
iScore [1]: 0.305

B7: 5T4 9-mer peptide 17 (peptide)
peptide: SPTSSASSF
iScore [1]: 0.335

B8: 5T4 9-mer peptide 186 (peptide)
peptide: LLVLYLNRK
iScore [11]: 0.386 | iScore [12]: 0.375 | iScore [3]: 0.386 | iScore [4]: 0.372 | iScore [5]: 0

B9: 5T4 9-mer peptide 163 (peptide)
peptide: YPEKMRNRV
iScore [1]: 0.242 | iScore [2]: 0.242 | iScore [3]: 0 | iScore [4]: 0 | iScore [5]: 0

B10: 5T4 9 mer peptide 101 (AALLAGRAL) (peptide)
peptide: AALLAGRAL
EC50 [9]: 4 µM | EC50 [6]: 7 µM

B11: 5T4 9 mer peptide 100 (VVAALLAGR) (peptide)
peptide: VVAALLAGR
EC50 [8]: 10 µM

B12: 5T4 9-mer peptide 100 (peptide)
peptide: VVAALLAGR
iScore [12]: 0.125

B13: 5T4 9-mer peptide 101 (peptide)
peptide: AALLAGRAL
notes: also called AALLAGRAL
iScore [1]: 0.238

B14: 5T4 9-mer peptide 174 ILPPSLQTS (peptide)
peptide: ILPPSLQTS
notes: also called Peptide No 174
t½ half life [7]: 5 h

B15: 5T4 9 mer peptide 59 (LAELAALNL) (peptide)
peptide: LAELAALNL
EC50 [9]: 2 µM | EC50 [6]: 20 µM

B16: 5T4 9 mer peptide 17 (SPTSSASSF) (peptide)
peptide: SPTSSASSF
EC50 [6]: 2 µM

B17: 5T4 9-mer peptide 71 (peptide)
peptide: LPSLRQLDL
iScore [1]: 0.454

B18: 5T4 9-mer peptide 117 (peptide)
peptide: LPSLRHLDL
iScore [1]: 0.445

B19: 5T4 9 mer peptide 8 (RLRLARLAL) (peptide)
peptide: RLRLARLAL
EC50 [8]: 0.4 µM | EC50 [9]: 0.06 µM | EC50 [6]: 0.02 µM

B20: 5T4 9 mer peptide 198 (HMEGYHYRY) (peptide)
peptide: HMEGYHYRY
EC50 [10]: 3 µM

B21: 5T4 9 mer peptide 55 (GAFARRPPL) (peptide)
peptide: GAFARRPPL
EC50 [9]: 0.8 µM | EC50 [6]: 10 µM

B22: 5T4 9-mer peptide 99 GMVVAALLA (peptide)
peptide: GMVVAALLA
notes: also called Peptide No 99
t½ half life [7]: 1.8 h

B23: 5T4 9-mer peptide 182 (peptide)
peptide: LALIGAIFL
iScore [11]: 0.425 | iScore [2]: 0.067 | iScore [3]: 0.425 | iScore [4]: 0 | iScore [5]: 0

B24: 5T4 9-mer peptide 4 RGPAAGDGR (peptide)
peptide: RGPAAGDGR
notes: also called Peptide No 4
t½ half life [7]: 1.2 h

B25: 5T4 9 mer peptide 65 (RLDEVRAGA) (peptide)
peptide: RLDEVRAGA
EC50 [8]: 40 µM | EC50 [9]: 20 µM | EC50 [6]: 20 µM

B26: 5T4 9-mer peptide 145 VFLDNNPWV (peptide)
peptide: VFLDNNPWV
t½ half life [7]: 1.2 h

B27: 5T4 9 mer peptide 161 (LTCAYPEKM) (peptide)
peptide: LTCAYPEKM
EC50 [9]: 10 µM | EC50 [10]: 20 µM

B28: 5T4 9-mer peptide 45 (peptide)
peptide: LPAYVRNLF
iScore [1]: 0.389

B29: 5T4 9-mer peptide 179 (peptide)
peptide: VFLGIVLAL
notes: also called VFLGIVLAL
iScore [11]: 0.606 | iScore [2]: 0 | iScore [3]: 0.606 | iScore [4]: 0 | iScore [5]: 0

B30: 5T4 9-mer peptide 142 (peptide)
peptide: GLPHIRVFL
iScore [11]: 1.39 | iScore [12]: 0.319 | iScore [2]: 0.075 | iScore [3]: 1.89 | iScore [4]: 0.319 | iScore [5]: 0

B31: 5T4 9 mer peptide 109 (LASNHFLYL) (peptide)
peptide: LASNHFLYL
EC50 [8]: 30 µM | EC50 [9]: 0.6 µM | EC50 [10]: 20 µM

B32: 5T4 9-mer peptide 58 (peptide)
peptide: PPLAELAAL
notes: also called PPLAELAAL
iScore [1]: 0.145

B33: 5T4 9 mer peptide 21 (FSSSAPFLA) (peptide)
peptide: FSSSAPFLA
EC50 [10]: 20 µM

B34: 5T4 9-mer peptide 77 PLADLSPFA (peptide)
peptide: PLADLSPFA
notes: also called Peptide No 77
t½ half life [7]: 4.8 h

B35: 5T4 9 mer peptide 58 (PPLAELAAL) (peptide)
peptide: PPLAELAAL
EC50 [9]: 40 µM | EC50 [6]: 30 µM

B36: 5T4 9-mer peptide 8 (peptide)
peptide: RLRLARLAL
notes: also called RLRLARLAL
iScore [1]: 1

B37: 5T4 9 mer peptide 177 (QTSYVFLGI) (peptide)
peptide: QTSYVFLGI
EC50 [10]: 20 µM

B38: 5T4 9-mer peptide 11 LALVLLGWV (peptide)
peptide: LALVLLGWV
notes: also called Peptide No 11
t½ half life [7]: 1.6 h

B39: 5T4 9 mer peptide 23 (APFLASAVS) (peptide)
peptide: APFLASAVS
EC50 [9]: 20 µM | EC50 [6]: 20 µM

B40: 5T4 9 mer peptide 147 (NNPWVCDCH) (peptide)
peptide: NNPWVCDCH
EC50 [8]: 3 µM

B41: 5T4 9 mer peptide 113 (LPRDVLAQL) (peptide)
peptide: LPRDVLAQL
EC50 [6]: 10 µM

B42: 5T4 9-mer peptide 187 (peptide)
peptide: VLYLNRKGI
iScore [1]: 0.164 | iScore [2]: 0.164 | iScore [3]: 0.095 | iScore [4]: 0.017 | iScore [5]: 0

B43: 5T4 9-mer peptide 23 (peptide)
peptide: APFLASAVS
iScore [1]: 0.176

B44: 5T4 9 mer peptide 43 (VPTDLPAYV) (peptide)
peptide: VPTDLPAYV
EC50 [9]: 20 µM | EC50 [10]: 20 µM

B45: 5T4 9-mer peptide 106 GLRRLELAS (peptide)
peptide: GLRRLELAS
t½ half life [7]: 0.4 h

B46: 5T4 9 mer peptide 71 (LPSLRQLDL) (peptide)
peptide: LPSLRQLDL
EC50 [9]: 5 µM | EC50 [6]: 3 µM

B47: 5T4 9 mer peptide 117 (LPSLRHLDL) (peptide)
peptide: LPSLRHLDL
EC50 [9]: 20 µM | EC50 [6]: 5 µM
